Data taken from a protein production outcome set (Wang et al. 2014).

Experiment: label from the status in PepcDB records

| Sequence | protein production |
| --- | --- |
| MENFVFHNPTKIVFGRGTIPKIGEEIKNAGIRKVLFLYGGGSIKKNGVYDQVVDSLKKHGIEWVEVSGVKPNPVLSKVHEAVEVAKKEKVEAVLGVGGGSVVDSAKAVAAGALYEGDIWDAFIGKYQIEKALPIFDVLTISATGTEMNGNAVITNEKTKEKYGVSSKALYPKVSIIDPSVQFTLPKEQTVYGAVDAISHILEYYFDGSSPEISNEIAEGTIRTIMKMTERLIEKPDDYEARANLAWSATIALNGTMAVGRRGGEWACHRIEHSLSALYDIAHGAGLAIVFPAWMKYVYRKNPAQFERFAKKIFGFEGEGEELILKGIEAFKNWLKKVGAPVSLKDAGIPEEDIDKIVDNVMLLVEKNLKPKGASLGRIMVLEREDVREILKLAAK | not failed |
| MENKRAIIAVVLSFIVLVGWGYLSEYMGWTPKSVPATEQKTAASAPAPSVVTSAPEAVTPAPAFSPSTGHEVTVTTPLYKAVLHSGGGVLRQFMLSRYHMGIDRDAAPVNLIESSAIRVAPLGLLVNGQPSWNTGQWAFEGGDLNLADGQTGTLRFVGSVDGLRVVRELEFHADSYLVTEKLHLAPEGDAPRTARVGFTLGTTSLTPGESQYNLTRVAWFADGSFSEKSSTGDLEKGVLIDGSIDWAGVMSNYFLAAVAPKDTRAVLKGKLEGGVYRVAVERPDQMVNPGNSDVIVCNYWFGPKERDLLNAAPNNLGKAIDLGWFGFIARPLVTLLDFFYKYVGNYGTAIILLTILIKLVFWPLSHKSYKSMEQMKKLQPMLAKVREKHADDREKMNEEMMRLYKTYKVNPAGGCLPMLVQIPVFFGLYQALLNAIELRHAPFIAHVPFTDIVWLADLSAKDPFYVTPLVMGATMFLQQKLTPPAGDPTQAKVMMFMPVVFTFLFLNFPSGLVVYWLCNNVLSIAQQWWILRKA | failed |
| MENLASPPDISFVIAAYNAADTIEAAVQSALDQRGVTLEVIVVDDRSADDTITFVEAIAAIDPRVRLLALEENRGPGGARNAGIEAATGRWIAVLDSDDVIRPERSACMMCRAEAANAAVAVDNLDVVYTDGRPMETMFPEEFLEERAVLTLEDFISSNILFRSTFNFGYMKPMFRRDFLNNEGLRFREDIRIGEDYILLASALAAGGLCVIEPKPGYIYNIREGSISRVLELHHVEAMMRADQEFLSHYTLLPAAMDAQQARARSLQLAHNFLTLVENIKRRSVLGALKTTIRDPAVLGHLRMPIAVRLRRLRDAMFAPAAKIQGLEHHHHHH | not failed |
| MENLGDRLEVVAELSLAPGNITLTPDGRLFLSLHQFYQPEMQVAELTQDGLIPFPPQSGNAIITFDTVLGIKSDGNGIVWMLDNGNQSKSVPKLVAWDTLNNQLSRVIYLPPPITLSNSFVNDLAVDLIHNFVYISDPAPDDKAALIRVDLQTGLAARVLQGYPGIAPEDIDLVIDGVPVQIGQPDGTVIRPHLGVNGIVLDAENEWLYLSPMHSTSMYRIKSADLSNLQLTDAELGSKIERYSEKPICDGISIDKDHNIYVGDLAHSAIGVITSADRAYKLLVTDEKLSWTDSFNFGSDGYLYFDCNQLHHSAPLNAGENISAPPYYIFRLKPLAAGIVGR | not failed |
| MENLYKELGDQSLHKDFCQTVASTFSCSVNRNGKSSITWKQVQIWFQEKLKHQSQPKSKTLPSPPLQIHDLSNPSSYASNASNATFVGNSTFVQTRKGKASDLADLAFEAKSARDYAWYDVSSFLTYRVLRTGELEVRVRFSGFDNRHDEWVNVKTSVRERSIPVEPSECGRVNVGDLLLCFQEREDQALYCDGHVLNIKRGIHDHARCNCVFLVRYELDNTEESLGLERICRRPEE | failed |
| MENRIELYDSKARYGVISRGLHWAMALAFAWIYSTTSAHYLLADSALDKFLWPTHKQVGLLLMALLLVRVLWSLLNRHRRPPSLNLAATLGHGLLYAGMFAIPFLGLLRQYGSGRAFSAFGLPVMNGFDGPKIQWMTELGNNFHSLLGWTLLVLIVGHVAALILHCIKGQGHILRRMAGSARSA | failed |
| MENSDDIRLIVKIAQLYYEQDMTQAQIARELGIYRTTISRLLKRGRDQGMVTIAINYDYNENLWLEQQLKQKFGLKDVVVVSGNDEDEETQLAMMGLHGAQLLDRLLEPGDIVGFSWGRAVSALVENLPQAGQSRQLICVPIIGGPSGKLESRYHVNTLTYSAAAKLKGESHLADFPALLDNPLIRNGIMQSQHFKTISAYWDNLDIALVGIGSPAIRDGANWHAFYGGEESDDLNARQVAGDICSRFFDIHGAMVETNMSEKTLSIEMNKLKQARYSIGIAMSEEKYSGIIGALRGKYINCLVTNSSTAELLLK | not failed |
| MENTLSFKKQGYWLFSSAIIIGVLFLLLPHIISNIGVLEFIGAFFNALCMGVIAFIILKAEFLDWFKHFSFKWIIIGAPALIIISSIFNIAWAYFAGSTTENGINSVLTWTYVFTSIPFMLLGEELLSISLLYAAWKKWNWKFWQASLLCSLLFATWHLTSYDFNFLQCIITLAPARLILNYLFKKTNSVWVTFIVHFIFDFIAFLPILLK | failed |
| MENYHRLYELSPLITGWTICVMILRIYKKMLNDHSFELHLILQDEAGKRIEVTIGTRFSAFYYDRLIENQWKMISTFLGTVLLNNFTPFDYILEHSVRKDTLVDLLGALIDFDWLTNSAPNGSDMDGFKLQFRFIDSKFTIYSQDILQCEAHGEYAVDLEKKFRSVRNNKVVIALAFWKIVTYFDGGHRMKIASHAPISTVYPDPDIEPVKEIKMVCIY | failed |
| MEPCSSDEFFQALNHAEQTFKKMENYLRHKQLCDVILVAGDRRIPAHRLVLSSVSDYFAAMFTNDVREARQEEIKMEGVEPNSLWSLIQYAYTGRLELKEDNIECLLSTACLLQLSQVVEACCKFLMKQLHPSNCLGIRSFADAQGCTDLHKVAHNYTMEHFMEVIRNQEFVLLPANEIAKLLASDDMNIPNEETILNALLTWVRHDLEQRRKDLSRLLAYIRLPLLAPQAPGLELSSPDLHSKDLAHSAISSTPK | failed |
| MEPGLRLLIQLVLEFAPVFVNILHKRSEESLTTARYQVPNLIQGFIETINNINDIDNSNKSLEQEKLWQQQLVAYQRETQAQIANQQRDTALKLPEVNKILDSWPLRLYPSQILESHHSYERKPLKVFIAPPKIHFDKFDNHVETYSEIELMLAEGLREFINENYSLHSPTRPIEFLAGAWDSKRFHSESSIKALFGMLKTEPILILESENDGDYLNFRIAYWGLTQGTYYYKTISRLPYKEIIQNSAKNRALEWKKVRDELLEIGVDVEEINEFGKDNVFNLAILEKAEKWQAQGIDISKLSLQYRVSQQDIEQLCQVLITCHCLVAAWVADIYHLGNHDIPPLLPELLPSLLKNAIDVQSLQAIASSYKQVYEALEKERLYWIPELSMQLAQSLSHLPDTSWAQAEVDYSINTWLELRQVSLQQFTSPLEAMQSVVKIEDEEYIQKLREYFTVIGDRHNLQFVEKLLEAIATLKYKRSLEYPYLTKTITGHSGKVKSVAISPDGEVIVSGCTDQTVNIWNLQTGKLIRTLTGNLGEVSSVAISPDGNFLAVGSGVHPRSNVKVWHLKTGKLLHTLLGHQKPVNVVVISPDGQILASGSNKIKIWNLQKGDGVPPTVGDRICTLWHSSAVHAIAISPDSTILASGSSDNKIRLWNPRTGDPLRTLNSHDNEVKAIAISRDGQFLFSGSADTTIKIWHLITGQILHTLTGHSGDIKSLTTSPNGQFLFSGSADTTIKIWRISTGELLHTLTGHSASVNSVAISPGGNLLASGSADQTIKIWQIDKI | failed |
| MEPIMRNPEDALLDSWHQNAQAWIDAVRHGAIESRRQVTDQAILLAILGRQPERVLDLGCGEGWLLRALADRGIEAVGVDGDRTLVDAARAAGAGEVHLASYAQLAEAKVPVGKDYDLICANFALLHQDIIELLSAMRTLLVPGGALVIQTLHPWSVADGDYQDGWREESFAGFAGDWQPMPWYFRTLASWLNALDMAGLRLVSLQEPQHPQSAVPQSLLMVAERH | failed |
| MEPKPFFLCIIFLLFCSSSSEILQKQTYIVQLHPNSETAKTFASKFDWHLSFLQEAVLGVEEEEEEPSSRLLYSYGSAIEGFAAQLTESEAEILRYSPEVVAVRPDHVLQVQTTYSYKFLGLDGFGNSGVWSKSRFGQGTIIGVLDTGVWPESPSFDDTGMPSIPRKWKGICQEGESFSSSSCNRKLIGARFFIRGHRVANSPEESPNMPREYISARDSTGHGTHTASTVGGSSVSMANVLGNGAGVARGMAPGAHIAVYKVCWFNGCYSSDILAAIDVAIQDKVDVLSLSLGGFPIPLYDDTIAIGTFRAMERGISVICAAGNNGPIESSVANTAPWVSTIGAGTLDRRFPAVVRLANGKLLYGESLYPGKGIKNAGREVEVIYVTGGDKGSEFCLRGSLPREEIRGKMVICDRGVNGRSEKGEAVKEAGGVAMILANTEINQEEDSIDVHLLPATLIGYTESVLLKAYVNATVKPKARIIFGGTVIGRSRAPEVAQFSARGPSLANPSILKPDMIAPGVNIIAAWPQNLGPTGLPYDSRRVNFTVMSGTSMSCPHVSGITALIRSAYPNWSPAAIKSALMTTADLYDRQGKAIKDGNKPAGVFAIGAGHVNPQKAINPGLVYNIQPVDYITYLCTLGFTRSDILAITHKNVSCNGILRKNPGFSLNYPSIAVIFKRGKTTEMITRRVTNVGSPNSIYSVNVKAPEGIKVIVNPKRLVFKHVDQTLSYRVWFVLKKKNRGGKVASFAQGQLTWVNSHNLMQRVRSPISVTLKTN | failed |
| MEPNIKVQSEDLRYIVQVVTSKIKVYDIIVDPVSVKFYFFDSDNEGIDASFDYIRRELVDKGFIPFLSRDGENFIQVTRRPKQRYFGNIVNVVLLVATILSTMYVGSQYSINFVPRGSFYELRLWAYGFLFFSAPLLLILGIHESAHFLVAKRHHVKASLPFFIPFPVGIGTFGAFISLRDPLPNRKAMTEIGAAGPIAGFLTALPLLFVADYFQGVIKPIPPYYIPFKVTFPLIYQLLGLHTNFTGPIFPMVFAVWVGMFATAMNLIPAGQLDGSHILRGVLGNRANVLSYVFLAFLFGIGFFYTGWWIIAIFVVFTGLVHPPALNDFSKISKLDIVLGIVSLAMFILTFTIVPIKPA | failed |
| MEPNRFGDILAFVSAVKAGSFTSAAATLGVTRSAVGKSVARLEARLGVRLLHRTTRKLNVTGEGLVVFERWSQILEDLEEVDATMAQRRGKPAGILRLTAPLSFGQRHILPILNAYVTNWPEIQADVWFTDHYVDLIEEGIDVAVRIGGVKDDARILSRTIGGQQFVTCAAPGYLAKKGVPSTPADLAGHDTIFFLSGQRPMPWRLGQGDAIEVCDGPGRMNIDSSEALREAALSGFGLIHLPTYITGKDLQRGDLVEVLEAYRPPADPIRLIYPSKRHLSPRTRAFIDLLIERWRDGVPWERLEPAS | failed |
| MEQHQVWAYQTKTHSVTLNSVDIPALAADDILVQNQAIGINPVDWKFIKANPINWSNGHVPGVDGAGVIVKVGAKVDSKMLGRRVAYHTSLKRHGSFAEFTVLNTDRVMTLPDNLSFERAAALPCPLLTAWQAFEKIPLTKQREVLIVGFGAVNNLLTQMLNNAGYVVDLVSASLSQALAAKRGVRHLYREPSQVTQKYFAIFDAVNSQNAAALVPSLKANGHIICIQDRIPAPIDPAFTRTISYHEIALGALHDFGDRQDWQILMQQGEALLTLIAQGKMEIAAPDIFRFEQMIEALDHSEQTKLKTVLTLNE | not failed |
| MEQIILDIIEFLKQFSYFGVVLALTFEFIPAEVVLPMVGYWVYEGDMNFWLAVLAGTLGGTTGPLTLYALGYYGGRPLLIKYGKYFFIKEEQIQKADDFFEKYGPVVAFVGRFVPGVRTLISVPCGKAKMNIWKFSIYTFVAMFPLTTLYVYCEMKLGPHWEKAADVVGQYMLPILVVVVIIVGGILIYKFMKKRNRSESI | failed |
| MEQKILSSEPRRSFSNEFKLQMVKLASQPGAXVARIAREHDINDNLLFKWLRLWQNERRISRRLPVTTSSGAGVELLPVEITPDEQKEPMAALTPLLSTPSQSTVSASSCKVEFRHGNMTLENPSPELLTVLIRELTGRGR | failed |
| MEQLDAIRRLNVAIFDDAHIIETFERDDLLMLLARSGGTDVGFKLGYRLNEAAFYSAKGGVHPAHRRNGIARALLYDMLDVVAGRGYERFVYDTFPNKHPGMTVLGLDEGFEVIRAGYSAKYQDYRLRFAWTFDAA | failed |
